This note sets out measurements from publication PMC12578639.

The target in assay [1] is ThsB2-His6 (Sau–Thoeris ThsB2 with a C-terminal hexahistidyl tag) (Staphylococcus aureus 08BA02176). Briefly: SEC + other: mass photometry; complex assembled from individually purified subunits in the presence of NAD+; Superdex 200 Increase 10/300 GL, 25 mM Tris pH 7.5, 200 mM NaCl, 5% glycerol, 1 mM dithiothreitol; peaks analysed by SDS–PAGE; mass photometry at 100–200 nM.

Assay [2] deals with His6-ThsB1 (Sau–Thoeris ThsB1 with an N-terminal hexahistidyl tag) (Staphylococcus aureus 08BA02176). The assay is described as above.

What is called stoichiometry N is a count of units in the complex or per binding partner.

For the molecule “ThsB2-His6 (Sau–Thoeris ThsB2 with a C-terminal hexahistidyl tag) (natural protein)”, the stoichiometry N in assay [1] was found to be 2.

B1: Major head protein (Mhp) of phage Φ80α, gp47 (natural protein)
chain: ASNNVKPQVFNPDNVMMHEKKDGTLMNEFTTPILQEVMENSKIMQLGKYEPMEGTEKKFTFWADKPGAYWVGEGQKIETSKATWVNATMRAFKLGVILPVTKEFLNYTYSQFFEEMKPMIAEAFYKKFDEAGILNQGNNPFGKSIAQSIEKTNKVIKGDFTQDNIIDLEALLEDDELEANAFISKTQNRSLLRKIVDPETKERIYDRNSDSLDGLPVVNLKSSNLKRGELITGDFDKLIYGIPQLIEYKIDETAQLSTVKNEDGTPVNLFEQDMVALRATMHVALHIADDKAFAKLVPADKRTDSVPGEV
Turning to B1, in assay [2], the stoichiometry N came out at 1.
